One assay addresses SEL1L-S658P-FLAG (mouse). Kind of assay: co-IP.
For a further assay, the target named is SEL1L-G585D-FLAG (mouse). Put plainly: co-IP.

“HRD1 (endogenous, HEK293T) (from UniProt Q86TM6 1-617) (enzyme)” had a percent reduction of binding against WT with SEL1L-S658P-FLAG (mouse) of 70%.

B1: OS9 (endogenous, HEK293T) (natural protein)
chain: GGVGSLNLEELSEMRYGIEILPLPVMGGQSQSSDVVIVSSKYKQRYECRLPAGAIHFQREREEETPAYQGPGIPELLSPMRDAPCLLKTKDWWTYEFCYGRHIQQYHMEDSEIKGEVLYLGYYQSAFDWDDETAKASKQHRLKRYHSQTYGNGSKCDLNGRPREAEVRFLCDEGAGISGDYIDRVDEPLSCSYVLTIRTPRLCPHPLLRPPPSAAPQAILCHPSLQPEEYMAYVQRQADSKQYGDKIIEELQDLGPQVWSETKSGVAPQKMAGASPTKDDSKDSDFWKMLNEPEDQAPGGEEVPAEEQDPSPEAADSASGAPNDFQNNVQVKVIRSPADLIRFIEELKGGTKKGKPNIGQEQPVDDAAEVPQREPEKERGDPERQREMEEEEDEDEDEDEDEDERQLLGEFEKELEGILLPSDRDRLRSEVKAGMERELENIIQETEKELDPDGLKKESERDRAMLALTSTLNKLIKRLEEKQSPELVKKHKKKRVVPKKPPPSPQPTEEDPEHRVRVRVTKLRLGGPNQDLTVLEMKRENPQLKQIEGLVKELLEREGLTAAGKIEIKIVRPWAEGTEEGARWLTDEDTRNLKEIFFNILVPGAEEAQKERQRQKELESNYRRVWGSPGGEGTGDLDEFDF
In the assay with SEL1L-G585D-FLAG (mouse), B1 showed a percent reduction of binding against WT of 90%.

The record behind these values is PMC12949252.
